Measured values taken from patent US20160046716A1 (Dana-Farber, published 2016).
Blank lines part the entries; values can stand above or below the molecule they belong to.

Columns and labels:
[1] = biological target: MICA antigen (UniGene Hs.130838) with a C-terminal BirA tag (human) (UniProt Q29983); experiment: flow cytometry of MICA-coated streptavidin beads, antibody directly conjugated to PE; legend box says 0.12ug, the label inside the plot says 0.05µg/ml (they disagree); streptavidin bead without MICA: 1.95
[2] = biological target: MICA antigen (UniGene Hs.130838) with a C-terminal BirA tag (human) (UniProt Q29983); experiment: flow cytometry of MICA-coated streptavidin beads, antibody directly conjugated to PE; legend box says 0.0002ug, label inside the plot 0.002µg/ml; streptavidin bead without MICA: 2.16
[3] = biological target: MICA antigen (UniGene Hs.130838) with a C-terminal BirA tag (human) (UniProt Q29983); experiment: flow cytometry of MICA-coated streptavidin beads, antibody directly conjugated to PE; legend box says 0.001ug, the label inside the plot says 0.24µg/ml (they disagree); streptavidin bead without MICA: 1.95
[4] = biological target: MICA antigen (UniGene Hs.130838) with a C-terminal BirA tag (human) (UniProt Q29983); experiment: flow cytometry of MICA-coated streptavidin beads, antibody directly conjugated to PE; legend box says 0.005ug, the label inside the plot says 1.2µg/ml (they disagree); streptavidin bead without MICA: 1.98
[5] = biological target: MICA antigen (UniGene Hs.130838) with a C-terminal BirA tag (human) (UniProt Q29983); experiment: flow cytometry of MICA-coated streptavidin beads, antibody directly conjugated to PE; legend box says 0.024ug, the label inside the plot says 0.01µg/ml (they disagree); streptavidin bead without MICA: 1.95
[6] = biological target: human MICA on transduced B16 melanoma cells (human) (UniProt Q29983); experiment: flow cytometry of B16 cells transduced with human MICA, antibody at 10 ug/ml; unstained 11.4; the same antibody on untransduced B16: 7.49 (unstained 7.12)
[7] = biological target: MICA antigen (UniGene Hs.130838) with a C-terminal BirA tag (human) (UniProt Q29983); experiment: flow cytometry of MICA-coated streptavidin beads, Alexa488 anti-human IgG; antibody at 0.05µg/ml; streptavidin bead without MICA: 2.18
[8] = biological target: MICA antigen (UniGene Hs.130838) with a C-terminal BirA tag (human) (UniProt Q29983); experiment: flow cytometry of MICA-coated streptavidin beads, Alexa488 anti-human IgG; antibody at 1.2µg/ml; streptavidin bead without MICA: 2.16
[9] = biological target: MICA antigen (UniGene Hs.130838) with a C-terminal BirA tag (human) (UniProt Q29983); experiment: flow cytometry of MICA-coated streptavidin beads, Alexa488 anti-human IgG; antibody at 6µg/ml; streptavidin bead without MICA: 2.63
[10] = biological target: MICA antigen (UniGene Hs.130838) with a C-terminal BirA tag (human) (UniProt Q29983); experiment: flow cytometry of MICA-coated streptavidin beads, Alexa488 anti-human IgG; antibody at 0.24µg/ml; streptavidin bead without MICA: 2.3
[11] = biological target: MICA antigen (UniGene Hs.130838) with a C-terminal BirA tag (human) (UniProt Q29983); experiment: flow cytometry of MICA-coated streptavidin beads, Alexa488 anti-human IgG; antibody at 30µg/ml; streptavidin bead without MICA: 3.53
[12] = biological target: human MICA on transduced B16 melanoma cells (human) (UniProt Q29983); experiment: […], antibody at 10 ug/ml; […]
[13] = biological target: T1, recombinant MICA alpha 3 domain (human, UniProt Q29983 206-299); experiment: cytometric bead assay: biotinylated MICA alpha 3 domain on streptavidin beads, FITC anti-human IgG, flow cytometry
T1 construct: domain: alpha 3 domain; also called Alpha 3 MICA Domain
T1 sequence (looked up): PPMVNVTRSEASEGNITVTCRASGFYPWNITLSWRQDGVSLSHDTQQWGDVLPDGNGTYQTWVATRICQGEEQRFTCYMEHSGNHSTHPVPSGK

[14] = biological target: T2, recombinant MICA*009 conjugated to Luminex beads (commercial kit) (human, UniProt Q29983 26-307); experiment: Luminex bead assay (One Lambda kit), PE anti-human IgG secondary; bars assigned by their order in the legend box
T2 chain: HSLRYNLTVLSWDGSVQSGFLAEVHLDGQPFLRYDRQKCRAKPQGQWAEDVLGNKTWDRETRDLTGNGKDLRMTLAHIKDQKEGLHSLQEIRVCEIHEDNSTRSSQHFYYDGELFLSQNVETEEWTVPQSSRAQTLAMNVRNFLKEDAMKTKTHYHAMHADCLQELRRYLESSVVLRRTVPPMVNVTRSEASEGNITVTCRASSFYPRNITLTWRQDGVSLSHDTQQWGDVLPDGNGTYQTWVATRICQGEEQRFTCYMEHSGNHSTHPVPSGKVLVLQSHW

Chain of MICA antigen (UniGene Hs.130838) with a C-terminal BirA tag (human) (Q29983 other isoform, or with tags, fused parts or gaps limits assumed): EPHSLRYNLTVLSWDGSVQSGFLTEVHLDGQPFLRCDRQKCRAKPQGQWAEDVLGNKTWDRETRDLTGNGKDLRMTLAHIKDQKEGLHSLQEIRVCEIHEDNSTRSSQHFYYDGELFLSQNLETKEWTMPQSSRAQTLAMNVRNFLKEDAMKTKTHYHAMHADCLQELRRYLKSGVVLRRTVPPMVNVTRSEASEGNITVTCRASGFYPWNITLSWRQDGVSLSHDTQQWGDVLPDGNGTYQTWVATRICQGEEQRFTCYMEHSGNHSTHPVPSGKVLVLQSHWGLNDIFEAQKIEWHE
Chain of human MICA on transduced B16 melanoma cells (human) (Q29983 24-383): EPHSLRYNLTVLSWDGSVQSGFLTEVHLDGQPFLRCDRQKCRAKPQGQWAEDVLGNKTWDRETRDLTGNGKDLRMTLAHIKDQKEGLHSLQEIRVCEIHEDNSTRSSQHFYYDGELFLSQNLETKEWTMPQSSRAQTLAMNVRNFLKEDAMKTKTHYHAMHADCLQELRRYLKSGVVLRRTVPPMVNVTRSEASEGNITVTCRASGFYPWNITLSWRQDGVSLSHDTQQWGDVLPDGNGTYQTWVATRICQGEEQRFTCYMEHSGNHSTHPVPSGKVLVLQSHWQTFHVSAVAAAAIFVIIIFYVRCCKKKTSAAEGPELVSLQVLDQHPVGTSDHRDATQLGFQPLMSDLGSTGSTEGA

Molecule: commercial anti-MICA/MICB monoclonal antibody (clone 6D4, BioLegend)
fluorescence value (statistic not given, FL2-H) [1]: 391
fluorescence value (statistic not given, FL2-H) [2]: 4.31
fluorescence value (statistic not given, FL2-H) [3]: 16.8
fluorescence value (statistic not given, FL2-H) [4]: 65.9
fluorescence value (statistic not given, FL2-H) [5]: 194
Geom. Mean:FL1-H [6]: 188

Molecule: negative control antibody (TTCF specific)
fluorescence value (statistic not given, FL1-H) [7]: 2.23
fluorescence value (statistic not given, FL1-H) [8]: 2.27
fluorescence value (statistic not given, FL1-H) [9]: 2.62
fluorescence value (statistic not given, FL1-H) [10]: 2.28
fluorescence value (statistic not given, FL1-H) [11]: 3.43
Geom. Mean:FL1-H [12]: 11.5

binding result [13]: no binding (tested: 10 µg/ml)
B1: CM24002 Ab4 (antibody, V domains shown)
VH: QVQLQESGPGLVKPSGTLSLTCAVSGASITNGAWWSWVRQPPGKGLEWIGEIYLNGNTNSNPSLKSRVIISVDKSKNHFSLTLNSVTAADTAVYYCAKNAAYNLEFWGQGALVTVSS
VL: EIVLTQSPGTLSLSPGERATLSCRASQTVSSPYVAWYQQKRGQAPRLLIYGASTRATGIPDRFSGSGSGTDFTLTISRLEPEDFAVYYCQQYDRSYYYTFGQGTKLEIK
notes: also called anti-MICA antibody ID-7; antibody ID 7

binding result [13]: no binding (tested: 10 µg/ml)
B2: CM24002 Ab2 (antibody, V domains shown)
VH: QVQLQESGPGLVEPSGTLSLTCTVSGGSISRSNWWSWVRQPPGEGLEWIGEIHHIGRSSYNPSLKSRVTMSVDKSQNQFSLRLTSVTAADTAVYYCAKNGYYAMDVWGQGTTVTVSS
VL: EIVLTQSPGTLSLSPGERATLSCRASQSVSSDFLAWYQQKPGQAPRLLIYATSFRATGISDRFSGSGSGTDFSLTINRLEPEDFAVYYCQHYRSSPPWYTFAQGTKLDMRRTVAAPSV
notes: also called anti-MICA antibody ID-6; antibody ID 6

binding result [14]: no binding (tested: 200 µg/ml)
B3: MICA-Ab20 (antibody, V domains shown)
VH: QVQLQQWGAGLLKPSETLALTCAVSGGSFTDHYWSWIRQAPGKGLEWIGEINHSGVTNYNPSLKSRLTISVDTSKSQFSLRLTSVTAADTALYYCAKTGLYYDDVWGTFRPRGGFDSWGQGTLVTVSS
VL: DIVMTQSPDSLAVSLGERATINCKSSQSILYSSDNKNYLAWYQHKPGQPPKLLFYWASIRESGVPDRFSGGGSGTDFTLTISSLQAEDVAVYYCQQYYSPPCSFGQGTKLEIQ
notes: also called anti-MICA antibody ID-1; antibody ID 1

binding result [13]: no binding (tested: 10 µg/ml)
B4: CM33322 Ab11 (antibody, V domains shown)
VH: QVQLQESGPGLVKPSENLSLTCTVSDASMSDYHWSWIRQAAGKGLEWIGRMYSTGSPYYKPSLKGRVTMSIDTSKNQFSLKLASVTAADTAIYYCASGQHIGGWVPPDFWGQGTLVTVSS
VL: DIVMTQTPLSSPVTLGQPASISCRSSEGLVYSDGDTYLSWFHQRPGQPPRLLIYKISNRFSGVPDRFSGSGAGTDFTLKISRVEAEDVGVYYCMQATHFPWTFGQGTKVEVKR
notes: also called CM33322 mAb11; CM33322 11
